Assay: yeast display, Sf9 membrane polyspecificity reagent, FACS + sequencing; frameworks hold sequencing errors
Procedure, shortened: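 Synthetic nanobody libraries on Saccharomyces cerevisiae BJ5465 were galactose-induced for 36–48 hours, stained 1 hour at 4 °C with 10% biotinylated, detergent-solubilized Sf9 membrane reagent and enriched on streptavidin microbeads. FACS then separated cells into low and high (top ~1%) gates by anti-HA (expression) and streptavidin (reagent binding) fluorescence. Genes were colony-PCR amplified, MiSeq 2 × 250 sequenced and CDR-length filtered. A clone's polyreactivity label is that of its gate of origin.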

QVQLVESGGGLVQAGGSLRLSCAASGRIFRHNAMGWYRQAPGKESELVAAISGGGTTYYADSVKGRFTISRDNAKNTVYLQMNSLKPEDTAVYYCAARRRGSVGVGYAYPYNYWGQGTQVTVSS
polyreactivity (PSR sort gate): high polyreactivity

QVQLVESGGGLVQAGGSLRLSCAASGRIFRHNTLGWYRQAPGKEREFVAAISRNGGITYYADSVKGRFTISRDNAKNTVYLQMNSLKPEDTAVYYCNAYTYRQNDYWGQGTQVTVSS
polyreactivity (PSR sort gate): high polyreactivity

QVQLVESGGGLVQAGGSLRLSCAASGRIFRHYAMGWYRQAPGKERELVAAINWNGGSTYYADSVKGRFTISRDNAKNTVYLQMNSLKPEDTAVYYCAARYRYVRGMDYWGQGTQVTVSS
polyreactivity (PSR sort gate): high polyreactivity

QVQLVESGGGLVQAGGSLRLSCAASGRIFRKNVMGWYRQAPGKERELVAAITTRGGSTYYADSVKGRFTISRDNAKNTVYLQMNSLKPEDTAVYYCATRVQWNSRYDYWGQGTQVTVSS
polyreactivity (PSR sort gate): high polyreactivity

QVQLVESGGGLVQAGGSLRLSCAASGRIFRKYAMGWSRQAPGKERELVAAISVGGGSTRYADSVKGRFTISRDNAKNTVYLQMNSLKDEDTAVYYCAADWAYYVASYLYYTFDYWGQGTQVTVSS
polyreactivity (PSR sort gate): low polyreactivity

QVQLVESGGGLVQAGGSLRLSCAASGRIFRLYAMGWYRQAPGKERELVAAIRASGGNTYYADSVKGRFTISRDNAKNTVYLQMNSLKPEDSAVYYCAADYWSRYYTVPEWYNYWGQGTQVTVSS
polyreactivity (PSR sort gate): high polyreactivity

QVQLVESGGGLVQAGGSLRLSCAASGRIFRLYAMGWYRQAPGKERELVAAISKSGGSTYYADSVKGRFTFSRDNAKNTVYLQMNSLKPEDTAVYYCAADYRTHGGYEGTFDYWGQGTQVTVSS
polyreactivity (PSR sort gate): low polyreactivity

QVQLVESGGGLVQAGGSLRLSCAASGRIFRLYAMGWYRQAPGKERELVAAISKSGGSTYYADSVKGRFTISRDTATNTVYLQMNSLKPEDTAVYYCAADYRTHGGYEGTFDYWGQGTQVTVSS
polyreactivity (PSR sort gate): low polyreactivity

QVQLVESGGGLVQAGGSLRLSCAASGRIFRNYAMGWYRQAPGKERELVAAISGNGGNTYYADSVKGRFTISRDNAKNTVYLQMNSLKPEDTAVYYCNAYHWLYSYRYSRTYDYWGQGTQVTVSS
polyreactivity (PSR sort gate): high polyreactivity

QVQLVESGGGLVQAGGSLRLSCAASGRIFRPYAMGWYRQAPGKEREFVAAITQSGGITSYADSVKGRFTISRDNAKNTVYLQMNRLKPEDTAVYFCATTSRYTRSHYDWYDYWGQGTQVTVSS
polyreactivity (PSR sort gate): low polyreactivity

QVQLVESGGGLVQAGGSLRLSCAASGRIFRPYAMGWYRQAPGKEREFVATIRFTTGRTYYADSVKGRFTISRDNAKNTVYLQMNSLKPEDTAVSYFAADFAFVNYAKISYTTHDYWGQGTQVTVSS
polyreactivity (PSR sort gate): high polyreactivity

QVQLVESGGGLVQAGGSLRLSCAASGRIFRPYAMGWYRQAPGKERELVARINGSGGSTYYADSVKGRFTISRDTAKNTVYFQMNSLKPEDTAVYYCNVRRIIRYLGYTHTKISWLDYWGQGTQVTVSS
polyreactivity (PSR sort gate): high polyreactivity

QVQLVESGGGLVQAGGSLRLSCAASGRIFRQNVMGWYRQAPGKERELVAGISRSGSGTRYADSVKGRFTISRDNAKNTVYLQMNSLKPEDTAVYYCNTLVPFSTWRYGYWGQGTQVTVSS
polyreactivity (PSR sort gate): high polyreactivity

QVQLVESGGGLVQAGGSLRLSCAASGRIFRQYTMGWNRQAPGKERELVAAITGTRGSTYYADSVKGRFTISRDNAKNTVYLQMNSLKPVDTAVYSCDADYSARYGYWGQGTQVTVSS
polyreactivity (PSR sort gate): high polyreactivity

QVQLVESGGGLVQAGGSLRLSCAASGRIFRRNAMGWYRPAPGKERELVAGITWSGGTTYYADSVKGRFTISRDNAKNTVYLQMNSLKPEDTAVYYCNAGRSKWLSRYDYWGQGTQVTVSS
polyreactivity (PSR sort gate): high polyreactivity

QVQLVESGGGLVQAGGSLRLSCAASGRIFRRNAMGWYRQAPGKEREFVAAITSSGDSTNYADSVKGRFTISRDNAKNTVYLQMNSLKPEDTAVYYCAADWARSALQGFYYWGQGTQVTVSS
polyreactivity (PSR sort gate): low polyreactivity

QVQLVESGGGLVQAGGSLRLSCAASGRIFRRNAMGWYRQAPGKEREFVATITSGGSTFYADSVKGRFTISRDNAKNTVYLQMNSLKPEDTAVYYCAAPSYNTPFHTPNYSWGQGTQVTVSS
polyreactivity (PSR sort gate): low polyreactivity

QVQLVESGGGLVQAGGSLRLSCAASGRIFRRNAMGWYRQAPGKERELVAAITSSGGNTYYADSVKGRFTISRDNAKNTVYLQMNSLKPEDTAVYYCAAELRPYITYDGPRKKFYYWGQGTQVTVSS
polyreactivity (PSR sort gate): high polyreactivity

QVQLVESGGGLVQAGGSLRLSCAASGRIFRRNTMGWSRPAPGTERELVAAITSRGGSTYYADSVKGRFTISRDNAKNTVYLQMNSLKPADTAVYYCNTRVVPEIYDYWGQGTQVTVSS
polyreactivity (PSR sort gate): high polyreactivity

QVQLVESGGGLVQAGGSLRLSCAASGRIFRRYAMGCYIQAPGKERELVAGITGSGTSTYYADSVKGRFTISRDNAKNTVYLQMNSLKPEDTAVYYCAADRGRGYRYNYWGQGTQVTVSS
polyreactivity (PSR sort gate): high polyreactivity

QVQLVESGGGLVQAGGSLRLSCAASGRIFRRYAMGWYRQAPGKERELVAAISSRGGSTYYADSVKGRFTISRDNAKNTVYLQMNSLKPEDTAVYYCNADVSASEYDYWGQGTQVTVSS
polyreactivity (PSR sort gate): high polyreactivity

QVQLVESGGGLVQAGGSLRLSCAASGRIFRRYAMGWYRQAPGKERELVAAITRSGGSTYYADSVKGRFTISRDNAKNTVYLQMNSLKPEDTAVYYCNAPSSLGTDYDYWGQGTQVTVSS
polyreactivity (PSR sort gate): high polyreactivity

QVQLVESGGGLVQAGGSLRLSCAASGRIFRRYAMGWYRQAPGKERELVASISSGGSTNYADSVNGRFTISRDNAKNTVYLQMNSLKPEDTAVYYCAASYPSIYYYRYDYWGKGTQVTVSS
polyreactivity (PSR sort gate): high polyreactivity

QVQLVESGGGLVQAGGSLRLSCAASGRIFRRYAMGWYRQAPGKERELVATISRGGSNTSYADSVKGRFTISRDNAKNTVYLQMNSLKPEDSAVYYCAKGSVRYYVGFDYWGQGTQVTVSS
polyreactivity (PSR sort gate): high polyreactivity

QVQLVESGGGLVQAGGSLRLSCAASGRIFRRYARGWYRQAPGKERELVATISRGGSNTSYADSVKGRFTISRDNAKNTVYLQMNSLKPEDTAVYYCAKGSVRYYVGYDYWGQGTQVSVSS
polyreactivity (PSR sort gate): high polyreactivity

QVQLVESGGGLVQAGGSLRLSCAASGRIFRRYTIGWYRQAPGKEWELVAGISSGGSTKYADSVKGRFTISRDNAKNTVYLQMNSLKPEDTAVYYCNRRCPIYGSRFGYYYWGQGTQVTVSS
polyreactivity (PSR sort gate): high polyreactivity

QVQLVESGGGLVQAGGSLRLSCAASGRIFRSNAMGWYRQAPGKERELVAAISSNGGSTYYADSVKGRFTISRDNAKNPVYLQMNSLKPEDTAVYYCAARVYYPVRYGYWGQGTQVTVSS
polyreactivity (PSR sort gate): high polyreactivity

QVQLVESGGGLVQAGGSLRLSCAASGRIFRSYAMGWYRQAPGKDRELVAAISSGDTTNYADSVKGRFTISRDNAKNTVYLQMNSLKPEDTAVYYCAAGFYYRGGYIQYEMNYWGQGTQVTVSS
polyreactivity (PSR sort gate): high polyreactivity

QVQLVESGGGLVQAGGSLRLSCAASGRIFRSYAMGWYRQAPGKERELVAAINYGGTSTYYADSVKGRFTISRDNAKNTVYLQMNSLKPEDTAVYYCAARRPTSPRRYESRGQGTQVTVSS
polyreactivity (PSR sort gate): high polyreactivity

QVQLVESGGGLVQAGGSLRLSCAASGRIFRSYAMGWYRQAPGKERELVAAISQRGGRTYYADSVKGRFTISRDNAKNTVYLQMNSLKPEDTAVYYCAKSNPKLGYYYLQGDLYDYWGQGTQVTVSS
polyreactivity (PSR sort gate): low polyreactivity

QVQLVESGGGLVQAGGSLRLSCAASGRIFRSYAMGWYRQAPGKERELVAAISQRGGSTYYADSVKGRFTISRDNAKNTVYLQMNSLKPEDTAVYYCNKERRNSGKFDYWGQGTQVTVSS
polyreactivity (PSR sort gate): high polyreactivity

From the nanobody polyreactivity screen of Harvey et al. (2022)
